According to US20250361299A1 (published 2025):
Blank lines part the entries; values can stand above or below the binder they belong to.

Experiments:
Human CD3 protein [1] = target: T1, Human CD3 protein (human, UniProt P07766 23-126); assay: ELISA; without uPA
T1 chain: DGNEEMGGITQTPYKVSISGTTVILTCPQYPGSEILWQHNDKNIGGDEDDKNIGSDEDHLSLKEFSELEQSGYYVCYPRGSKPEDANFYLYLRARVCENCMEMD

Recombinant human EGFR [2] = target: T2, Recombinant human EGFR (human, UniProt P00533 25-645); assay: ELISA; without uPA
Human CD3 protein [3] = target: T1, Human CD3 protein; assay: ELISA
Recombinant human EGFR [4] = target: T2, Recombinant human EGFR; assay: ELISA
Human CD3 protein [5] = target: T1, Human CD3 protein; assay: ELISA
Recombinant human EGFR [6] = target: T2, Recombinant human EGFR; assay: ELISA; remark: listed apart in the source
Human CD3 protein [7] = target: T1, Human CD3 protein; assay: ELISA
Recombinant human EGFR [8] = target: T2, Recombinant human EGFR; assay: ELISA; remark: listed apart in the source

EC50 (Human CD3 protein [3]): 0.462 µg/mL | EC50 (Recombinant human EGFR [4]): 0.0106 µg/mL
B2: 1.6.1M-Pa-Unmask iBiTE (bispecific antibody)
heavy: EVQLVESGGGLVQPGGSLRLSCAASGFTFNTYAMNWVRQAPGKGLEWVARIRSKYNNYATYYADSVKGRFTISRDDSKNTLYLQMNSLRAEDTAVYYCARHGNFGSSYVSYFAYWGQGTTVTVSSASTKGPSVFPLAPSSKSTSGGTAALGCLVKDYFPEPVTVSWNSGALTSGVHTFPAVLQSSGLYSLSSVVTVPSSSLGTQTYICNVNHKPSNTKVDKKVEPKSCPPCPAPEAAGAPSVFLFPPKPKDTLMISRTPEVTCVVVDVSHEDPEVKFNWYVDGVEVHNAKTKPREEQYNSTYRVVSVLTVLHQDWLNGKEYKCKVSNKALPAPIEKTISKAKGQPREPQVYTLPPSRDELTKNQVSLLCLVKGFYPSDIAVEWESNGQPENNYKTTPPVLDSDGSFFLHSKLTVDKSRWQQGNVFSCSVMHEALHNHYTQKSLSLSPGK
light: QVQLQESGPGLVKPSETLSLTCTVSGGSVSSGDYYWTWIRQSPGKGLEWIGHIYYSGNTNYNPSLKSRLTISIDTSKTQFSLKLSSVTAADTAIYYCVRDRVTGAFDIWGQGTMVTVSSGGGGSGGGGSGGGGSGGGGSDIQMTQSPSSLSASVGDRVTITCQASQDISNYLNWYQQKPGKAPKLLIYDASNLETGVPSRFSGSGSGTDFTFTISSLQPEDIATYFCQHFDHLPLAFGGGTKVEIKGGGGSGGGGSGGGGSGGGGSEIVVTQSPATLSVSPGERATLSCRSSTGAVTTSNYANWVQQKPGQAPRGLIGGANKRAPGVPARFSGSLSGDEATLTISSLQSEDFAVYYCALWYSNLWVFGQGTKLEIKRTVAAPSVFIFPPSDEQLKSGTASVVCLLNNFYPREAKVQWKVDNALQSGNSQESVTEQDSKDSTYSLSSTLTLSKADYEKHKVYACEVTHQGLSSPVTKSFNRGECPPCPAPEAAGAPSVFLFPPKPKDTLMISRTPEVTCVVVDVSHEDPEVKFNWYVDGVEVHNAKTKPREEQYNSTYRVVSVLTVLHQDWLNGKEYKCKVSNKALPAPIEKTISKAKGQPREPQVYTLPPSRDELTKNQVSLLCLVKGFYPSDIAVEWESNGQPENNYKTTPPVLDSDGSFFLHSKLTVDKSRWQQGNVFSCSVMHEALHNHYTQKSLSLSPGK

EC50 (Human CD3 protein [3]): ~99500 µg/mL | EC50 (Recombinant human EGFR [4]): 0.027 µg/mL
B3: 1.6.1M-Pa-Noncleavable BiTE (bispecific antibody)
heavy: QDGNEEMGGGSQDGNEEMGGIGGGSGGGGSGLSGAGNHGGGGSEVQLVESGGGLVQPGGSLRLSCAASGFTFNTYAMNWVRQAPGKGLEWVARIRSKYNNYATYYADSVKGRFTISRDDSKNTLYLQMNSLRAEDTAVYYCARHGNFGSSYVSYFAYWGQGTTVTVSSASTKGPSVFPLAPSSKSTSGGTAALGCLVKDYFPEPVTVSWNSGALTSGVHTFPAVLQSSGLYSLSSVVTVPSSSLGTQTYICNVNHKPSNTKVDKKVEPKSCPPCPAPEAAGAPSVFLFPPKPKDTLMISRTPEVTCVVVDVSHEDPEVKFNWYVDGVEVHNAKTKPREEQYNSTYRVVSVLTVLHQDWLNGKEYKCKVSNKALPAPIEKTISKAKGQPREPQVYTLPPSRDELTKNQVSLLCLVKGFYPSDIAVEWESNGQPENNYKTTPPVLDSDGSFFLHSKLTVDKSRWQQGNVFSCSVMHEALHNHYTQKSLSLSPGK
light: QVQLQESGPGLVKPSETLSLTCTVSGGSVSSGDYYWTWIRQSPGKGLEWIGHIYYSGNTNYNPSLKSRLTISIDTSKTQFSLKLSSVTAADTAIYYCVRDRVTGAFDIWGQGTMVTVSSGGGGSGGGGSGGGGSGGGGSDIQMTQSPSSLSASVGDRVTITCQASQDISNYLNWYQQKPGKAPKLLIYDASNLETGVPSRFSGSGSGTDFTFTISSLQPEDIATYFCQHFDHLPLAFGGGTKVEIKGGGGSGGGGSGGGGSGGGGSEIVVTQSPATLSVSPGERATLSCRSSTGAVTTSNYANWVQQKPGQAPRGLIGGANKRAPGVPARFSGSLSGDEATLTISSLQSEDFAVYYCALWYSNLWVFGQGTKLEIKRTVAAPSVFIFPPSDEQLKSGTASVVCLLNNFYPREAKVQWKVDNALQSGNSQESVTEQDSKDSTYSLSSTLTLSKADYEKHKVYACEVTHQGLSSPVTKSFNRGECPPCPAPEAAGAPSVFLFPPKPKDTLMISRTPEVTCVVVDVSHEDPEVKFNWYVDGVEVHNAKTKPREEQYNSTYRVVSVLTVLHQDWLNGKEYKCKVSNKALPAPIEKTISKAKGQPREPQVYTLPPSRDELTKNQVSLLCLVKGFYPSDIAVEWESNGQPENNYKTTPPVLDSDGSFFLHSKLTVDKSRWQQGNVFSCSVMHEALHNHYTQKSLSLSPGK

More lines, now with the values behind:

B1: 1.6.1M-Pa proBiTE (bispecific antibody)
heavy: QDGNEEMGGGSQDGNEEMGGIGGGSGGGGSGLSGRSDNHGGGGSEVQLVESGGGLVQPGGSLRLSCAASGFTFNTYAMNWVRQAPGKGLEWVARIRSKYNNYATYYADSVKGRFTISRDDSKNTLYLQMNSLRAEDTAVYYCARHGNFGSSYVSYFAYWGQGTTVTVSSASTKGPSVFPLAPSSKSTSGGTAALGCLVKDYFPEPVTVSWNSGALTSGVHTFPAVLQSSGLYSLSSVVTVPSSSLGTQTYICNVNHKPSNTKVDKKVEPKSCPPCPAPEAAGAPSVFLFPPKPKDTLMISRTPEVTCVVVDVSHEDPEVKFNWYVDGVEVHNAKTKPREEQYNSTYRVVSVLTVLHQDWLNGKEYKCKVSNKALPAPIEKTISKAKGQPREPQVYTLPPSRDELTKNQVSLLCLVKGFYPSDIAVEWESNGQPENNYKTTPPVLDSDGSFFLHSKLTVDKSRWQQGNVFSCSVMHEALHNHYTQKSLSLSPGK
light: QVQLQESGPGLVKPSETLSLTCTVSGGSVSSGDYYWTWIRQSPGKGLEWIGHIYYSGNTNYNPSLKSRLTISIDTSKTQFSLKLSSVTAADTAIYYCVRDRVTGAFDIWGQGTMVTVSSGGGGSGGGGSGGGGSGGGGSDIQMTQSPSSLSASVGDRVTITCQASQDISNYLNWYQQKPGKAPKLLIYDASNLETGVPSRFSGSGSGTDFTFTISSLQPEDIATYFCQHFDHLPLAFGGGTKVEIKGGGGSGGGGSGGGGSGGGGSEIVVTQSPATLSVSPGERATLSCRSSTGAVTTSNYANWVQQKPGQAPRGLIGGANKRAPGVPARFSGSLSGDEATLTISSLQSEDFAVYYCALWYSNLWVFGQGTKLEIKRTVAAPSVFIFPPSDEQLKSGTASVVCLLNNFYPREAKVQWKVDNALQSGNSQESVTEQDSKDSTYSLSSTLTLSKADYEKHKVYACEVTHQGLSSPVTKSFNRGECPPCPAPEAAGAPSVFLFPPKPKDTLMISRTPEVTCVVVDVSHEDPEVKFNWYVDGVEVHNAKTKPREEQYNSTYRVVSVLTVLHQDWLNGKEYKCKVSNKALPAPIEKTISKAKGQPREPQVYTLPPSRDELTKNQVSLLCLVKGFYPSDIAVEWESNGQPENNYKTTPPVLDSDGSFFLHSKLTVDKSRWQQGNVFSCSVMHEALHNHYTQKSLSLSPGK
EC50 (Human CD3 protein [1]): 47.2 µg/mL | EC50 (Recombinant human EGFR [2]): 0.0154 µg/mL

B4: 1.6.1M-Pa-CTR (antibody)
chain 1: EVQLVESGGGLVQPGGSLRLSCAASGFTFNTYAMNWVRQAPGKGLEWVARIRSKYNNYATYYADSVKGRFTISRDDSKNTLYLQMNSLRAEDTAVYYCARHGNFGSSYVSYFAYWGQGTTVTVSSASTKGPSVFPLAPSSKSTSGGTAALGCLVKDYFPEPVTVSWNSGALTSGVHTFPAVLQSSGLYSLSSVVTVPSSSLGTQTYICNVNHKPSNTKVDKKVEPKSCPPCPAPEAAGAPSVFLFPPKPKDTLMISRTPEVTCVVVDVSHEDPEVKFNWYVDGVEVHNAKTKPREEQYNSTYRVVSVLTVLHQDWLNGKEYKCKVSNKALPAPIEKTISKAKGQPREPQVYTLPPSRDELTKNQVSLLCLVKGFYPSDIAVEWESNGQPENNYKTTPPVLDSDGSFFLHSKLTVDKSRWQQGNVFSCSVMHEALHNHYTQKSLSLSPGK
chain 2: QVQLQESGPGLVKPSETLSLTCTVSGGSVSSGDYYWTWIRQSPGKGLEWIGHIYYSGNTNYNPSLKSRLTISIDTSKTQFSLKLSSVTAADTAIYYCVRDRVTGAFDIWGQGTMVTVSSGGGGSGGGGSGGGGSGGGGSDIQMTQSPSSLSASVGDRVTITCQASQDISNYLNWYQQKPGKAPKLLIYDASNLETGVPSRFSGSGSGTDFTFTISSLQPEDIATYFCQHFDHLPLAFGGGTKVEIKGGGGSGGGGSGGGGSGGGGSEIVVTQSPATLSVSPGERATLSCRSSTGAVTTSNYANWVQQKPGQAPRGLIGGANKRAPGVPARFSGSLSGDEATLTISSLQSEDFAVYYCALWYSNLWVFGQGTKLEIKRTVAAPSVFIFPPSDEQLKSGTASVVCLLNNFYPREAKVQWKVDNALQSGNSQESVTEQDSKDSTYSLSSTLTLSKADYEKHKVYACEVTHQGLSSPVTKSFNRGECPPCPAPEAAGAPSVFLFPPKPKDTLMISRTPEVTCVVVDVSHEDPEVKFNWYVDGVEVHNAKTKPREEQYNSTYRVVSVLTVLHQDWLNGKEYKCKVSNKALPAPIEKTISKAKGQPREPQVYTLPPSRDELTKNQVSLLCLVKGFYPSDIAVEWESNGQPENNYKTTPPVLDSDGSFFLHSKLTVDKSRWQQGNVFSCSVMHEALHNHYTQKSLSLSPGK
EC50 (Human CD3 protein [5]): 0.613 µg/mL | EC50 (Recombinant human EGFR [6]): 0.0264 µg/mL

B5: 1.4.3M-Pa-Noncleavable (antibody)
chain 1: QDGNEEMGGIGGGSQDGNEEMGGGGGSGGGSGGSEVQLVESGGGLVQPGGSLRLSCAASGFTFNTYAMNWVRQAPGKGLEWVARIRSKYNNYATYYADSVKGRFTISRDDSKNTLYLQMNSLRAEDTAVYYCARHGNFGSSYVSYFAYWGQGTTVTVSSGGGSSGGGGSGGGGSQVQLQESGPGLVKPSETLSLTCTVSGGSVSSGDYYWTWIRQSPGKGLEWIGHIYYSGNTNYNPSLKSRLTISIDTSKTQFSLKLSSVTAADTAIYYCVRDRVTGAFDIWGQGTMVTVSSASTKGPSVFPLAPSSKSTSGGTAALGCLVKDYFPEPVTVSWNSGALTSGVHTFPAVLQSSGLYSLSSVVTVPSSSLGTQTYICNVNHKPSNTKVDKKVEPKSCPPCPAPEAAGGPSVFLFPPKPKDTLMISRTPEVTCVVVDVSHEDPEVKFNWYVDGVEVHNAKTKPREEQYNSTYRVVSVLTVLHQDWLNGKEYKCKVSNKALPAPIEKTISKAKGQPREPQVYTLPPSRDELTKNQVSLLCLVKGFYPSDIAVEWESNGQPENNYKTTPPVLDSDGSFFLHSKLTVDKSRWQQGNVFSCSVMHEALHNHYTQKSLSLSPGK
chain 2: not shown
EC50 (Human CD3 protein [7]): 7.43 µg/mL | EC50 (Recombinant human EGFR [8]): 0.255 µg/mL
